In patent publication US6900299 (UNIVERSITY OF SOUTH FLORIDA, dated 2005):

B1: RSV-G fused to the GAL4 DNA-binding domain (pM vector) (other)
chain: MKLLSSIEQACDICRLKKLKCSKEKPKCAKCLKNNWECRYSPKTKRSPLTRAHLTEVESRLERLEQLFLLIFPREDLDMILKMDSLQDIKALLTGLFVQDNVNKDAVTDRLASVETDMPLTLRQHRISATSSSEESSNKGQRQLTVSMSKNKDQRTAKTLERTWDTLNHLLFISSCLYKLNLKSVAQITLSILAMIISTSLIIAAIIFIASANHKVTPTTAIIQDATSQIKNTTPTYLTQNPQLGISPSNPSEITSQITTILASTTPGVKSTLQSTTVKTKNTTTTQTQPSKPTTKQRQNKPPSKPNNDFHFEVFNFVPCSICSNNPTCWAICKRIPNKKPGKKTTTKPTKKPTLKTTKKDPKPQTTKSKEVPTTKPTEEPTINTTKTNIITTLLTSNTTGNPELTSQMETFHSTSSEGNPSPSQVSTTSEYPSQPSSPPNTPRQ
notes: also called cDNA construct expressing G; RSV-G gene product

What was measured:
[1] = molecular target: human ICAM-1 on cells (HEp-2, NHBE, A549, U937) (human) (UniProt P05362); test: cell-based or functional assay
[2] = molecular target: T1, human ICAM-1 fused to the VP16 activation domain (pVP16 vector) (herpes simplex virus; human, UniProt P05362 28-532); test: mammalian two-hybrid assay in NIH3T3 cells, CAT reporter (CAT activity similar to the basal level)
T1 construct: Order of the parts follows the usual pVP16 layout; also called ICAM-1 (two-hybrid construct)
T1 sequence (P05362 28-532 limits assumed): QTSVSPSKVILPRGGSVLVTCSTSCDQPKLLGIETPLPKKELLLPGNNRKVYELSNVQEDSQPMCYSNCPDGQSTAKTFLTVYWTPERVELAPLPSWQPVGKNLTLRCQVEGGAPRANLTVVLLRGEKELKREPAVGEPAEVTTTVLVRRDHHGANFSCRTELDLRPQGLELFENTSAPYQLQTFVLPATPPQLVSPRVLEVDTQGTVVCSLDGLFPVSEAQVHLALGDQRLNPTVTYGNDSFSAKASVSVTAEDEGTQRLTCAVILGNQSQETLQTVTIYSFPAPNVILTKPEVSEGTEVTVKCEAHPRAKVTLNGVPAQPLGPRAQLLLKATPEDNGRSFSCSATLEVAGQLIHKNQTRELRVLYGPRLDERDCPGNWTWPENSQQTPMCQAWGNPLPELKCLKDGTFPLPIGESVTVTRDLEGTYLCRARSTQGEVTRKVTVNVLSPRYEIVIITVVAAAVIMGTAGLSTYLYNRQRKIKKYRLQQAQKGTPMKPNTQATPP

human ICAM-1 on cells (HEp-2, NHBE, A549, U937) (human), sequence (P05362 28-532): as the sequence (P05362 28-532 limits assumed) above

| Molecule | inhibition of RSV N gene mRNA in HEp-2 cells (RT-PCR) at 400 µg of mAb/ml [1] [%] | inhibition of RSV infection of HEp-2 cells (immunofluorescence, percent infected cells) at 400 µg/ml [1] [%] | reduction in RSV infection of A549 cells at 400 µg of mAb/ml [1] [%] | reduction in RSV infection of NHBE cells at 400 µg of mAb/ml [1] [%] | binding result [2] |
| --- | --- | --- | --- | --- | --- |
| mouse anti-human ICAM-1 mAb (BBA 4) (R & D Systems) (antibody) | 70 | 96 | 67 | 54 |  |
| B1 |  |  |  |  | no binding |
